Assay results reported in US20120122125A1 (AbbVie / Abbott, published 2012).
Positions count from the first letter of the chain named.

Legend:
[1] = biological target: T1, Chagas FP3 recombinant antigen (Trypanosoma cruzi); assay: SPR, BIAcore 2000; His6-tagged FP3 captured on anti-His4, chimeric antibody injected 0-300 nM
T1 construct: also called T. cruzi antigen FP3; not shown: His6 tag at the amino end, from the pET vector
T1 chain: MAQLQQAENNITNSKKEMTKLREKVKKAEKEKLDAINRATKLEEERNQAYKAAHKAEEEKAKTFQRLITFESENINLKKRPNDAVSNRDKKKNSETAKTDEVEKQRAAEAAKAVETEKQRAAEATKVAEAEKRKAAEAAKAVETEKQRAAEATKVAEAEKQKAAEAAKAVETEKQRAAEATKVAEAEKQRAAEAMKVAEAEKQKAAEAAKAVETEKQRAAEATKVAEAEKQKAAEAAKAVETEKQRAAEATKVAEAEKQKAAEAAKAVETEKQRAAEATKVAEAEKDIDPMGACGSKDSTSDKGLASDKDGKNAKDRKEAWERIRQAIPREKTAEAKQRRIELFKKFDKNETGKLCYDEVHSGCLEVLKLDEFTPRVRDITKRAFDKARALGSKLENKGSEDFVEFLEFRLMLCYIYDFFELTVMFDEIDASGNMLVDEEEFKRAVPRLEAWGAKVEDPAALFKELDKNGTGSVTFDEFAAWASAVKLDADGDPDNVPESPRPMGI

[2] = biological target: T2, Chagas FP10 recombinant antigen (Trypanosoma cruzi); assay: SPR, BIAcore 2000; His6-tagged FP10 captured on anti-His4, chimeric antibody injected
T2 construct: also called T. cruzi antigen FP10
T2 chain: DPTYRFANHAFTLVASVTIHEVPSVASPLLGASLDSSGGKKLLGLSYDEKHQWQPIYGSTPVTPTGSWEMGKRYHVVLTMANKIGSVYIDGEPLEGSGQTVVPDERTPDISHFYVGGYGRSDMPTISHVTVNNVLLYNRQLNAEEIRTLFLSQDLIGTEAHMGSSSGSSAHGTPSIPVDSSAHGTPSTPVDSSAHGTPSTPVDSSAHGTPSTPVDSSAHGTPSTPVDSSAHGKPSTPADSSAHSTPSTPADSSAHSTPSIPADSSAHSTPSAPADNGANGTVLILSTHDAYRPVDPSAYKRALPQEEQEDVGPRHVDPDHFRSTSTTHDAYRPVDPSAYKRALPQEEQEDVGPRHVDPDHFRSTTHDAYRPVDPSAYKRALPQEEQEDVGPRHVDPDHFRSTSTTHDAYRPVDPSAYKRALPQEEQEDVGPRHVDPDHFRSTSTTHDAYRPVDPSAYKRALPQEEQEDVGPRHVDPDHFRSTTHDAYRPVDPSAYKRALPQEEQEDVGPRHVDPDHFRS

[3] = biological target: T1, Chagas FP3 recombinant antigen; assay: SPR, BIAcore 2000; murine mAb captured on rabbit anti-mouse IgG, FP3 injected 0-200 nM
Chagas FRA antigen [4] = biological target: T3, Chagas FRA antigen (Trypanosoma cruzi); assay: SPR, BIAcore 2000; murine mAb captured on rabbit anti-mouse IgG, FRA injected
T3 construct: also called FRA-domain; recombinant FRA antigen
T3 chain: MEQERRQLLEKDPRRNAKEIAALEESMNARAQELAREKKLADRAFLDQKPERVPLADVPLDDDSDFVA

[5] = biological target: T2, Chagas FP10 recombinant antigen; assay: SPR, BIAcore 2000; murine mAb captured on rabbit anti-mouse IgG, FP10 injected
Pep2 antigen = biological target: T4, Pep2 antigen (Trypanosoma cruzi); assay: SPR, BIACORE; chimeric antibody from transient COS 7L expression; the antigen is not given
T4 construct: The form of Pep2 coated in the anti-Pep2 microtiter EIA is not described; also called TcF Pep2 peptide
T4 peptide: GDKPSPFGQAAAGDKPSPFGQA

[6] = biological target: Chagas TcF recombinant antigen (Trypanosoma cruzi); assay: SPR, BIAcore 2000; chimeric antibody captured on goat anti-human IgG Fc, TcF injected 0-100 nM
[7] = biological target: T1, Chagas FP3 recombinant antigen; assay: SPR, BIAcore 2000; His6-tagged FP3 captured on anti-His4, chimeric antibody injected
[8] = biological target: Chagas TcF recombinant antigen (Trypanosoma cruzi); assay: SPR, BIAcore 2000; murine mAb captured on rabbit anti-mouse IgG, TcF injected 0-200 nM
[9] = biological target: T1, Chagas FP3 recombinant antigen; assay: SPR, BIAcore 2000; murine mAb captured on rabbit anti-mouse IgG, FP3 injected
[10] = biological target: Chagas recombinant antigen FP6 (Trypanosoma cruzi); assay: SPR, BIAcore 2000; murine mAb captured on rabbit anti-mouse IgG, FP6 injected 0-200 nM
Chagas FRA antigen [11] = biological target: T3, Chagas FRA antigen; assay: SPR, BIAcore 2000; murine mAb captured on rabbit anti-mouse IgG, FRA injected 0-200 nM
[12] = biological target: T2, Chagas FP10 recombinant antigen; assay: SPR, BIAcore 2000; His6-tagged FP10 captured on anti-His4, chimeric antibody injected 0-300 nM
[13] = biological target: T2, Chagas FP10 recombinant antigen; assay: SPR, BIAcore 2000; murine mAb captured on rabbit anti-mouse IgG, FP10 injected 0-200 nM

B1: recombinant chimeric (mouse-human) anti-Chagas monoclonal antibody 12-392-150 (FP3) (antibody, V domains shown)
VH: DVQLVESGGGLVQPGGSRKLSCAASGFTFSVFGMHWVRQAPEKGLEWVAYISSGSTIIYYADTVKGRFTISRDNPKNTLFLQMTGLRSEDTAMYYCARPLYYDYDDYAMDYWGQGTSVTVSS
VL: YIVMSQSPSSLAVSAGEKVTMSCKSSQSLLNSRTRKNHLAWYQQKPGQSPKLLIYWASTRESGVPDRFTGSGSGTDFALTISSVQAEDLAVYFCKQSYNLYTFGAGTKLELK
notes: Mouse VH and VL of hybridoma HBFP3 joined to human IgG1 (z, non-a) and human kappa constant regions; the summary and the claims swap them; also called Chimeric Chagas Ab 12-392-150; Chagas FP3 12-392-150CHO2580-104
[1]
  Kd: 0.14 nM
  koff: 0.00038 s⁻¹
  kon: 2.7e+06 M⁻¹ s⁻¹
[2]
  binding result: no binding (tested: 0 to 300 nM antibody)

B2: murine anti-Chagas monoclonal antibody 12-392-150 (FP3) (antibody, V domains shown)
VH: B1 VH
VL: B1 VL
notes: Mouse hybridoma mAb; captured by anti-mouse IgG; also called Murine Chagas Ab 12-392-150; hybrid 12-392
[3]
  Kd: 0.08 nM
  koff: 5e-05 s⁻¹
  kon: 560000 M⁻¹ s⁻¹
Chagas FRA antigen [4]
  binding result: no binding (tested: 0 to 200 nM antigen)
[5]
  binding result: no binding (tested: 0 to 200 nM antigen)

B3: recombinant chimeric (mouse-human) anti-Chagas monoclonal antibody 9-638-132 (Pep2 epitope in TcF and FP6) (antibody, V domains shown)
VH: QVQLQQPGAELVRPGASVKLSCKASGYTFTSYWMNWVKLRPGQGLEWIGMIDPSDSETYYDQVFKDKATLTVDKSSSTAYMHLSSLTSEDSAVYYCARWITTDSYTMDYWGQGTSVTVSS
VL: B1 VL with Y1D, K18Q, L30F, H38Y, A78T, F93Y, Y101L
notes: Mouse VH and VL of hybridoma HBPep2 joined to human IgG1 (z, non-a) and human kappa constant regions; the summary and the claims swap them; also called Chimeric Chagas Ab 9-638-132; Chagas Pep2 9-638-1928
Pep2 antigen
  Kd: ~2.6 nM
[6]
  Kd: 4.1 nM
  koff: 0.017 s⁻¹
  kon: 4e+06 M⁻¹ s⁻¹
[2]
  binding result: no binding (tested: 0 to 300 nM antibody)
[7]
  binding result: no binding (tested: 0 to 300 nM antibody)

B4: murine anti-Chagas monoclonal antibody 9-638-132 (Pep2 epitope in TcF and FP6) (antibody, V domains shown)
VH: B3 VH
VL: B1 VL with Y1D, K18Q, L30F, H38Y, A78T, F93Y, Y101L
notes: Mouse hybridoma mAb; captured by anti-mouse IgG; also called Murine Chagas Ab 9-638-132; hybrid 9-638
[8]
  Kd: 5.7 nM
  koff: 0.012 s⁻¹
  kon: 2.1e+06 M⁻¹ s⁻¹
[9]
  binding result: no binding (tested: 0 to 200 nM antigen)
Chagas FRA antigen [4]
  binding result: no binding (tested: 0 to 200 nM antigen)

B5: murine anti-Chagas monoclonal antibody 8-367-171 (FRA) (antibody, V domains shown)
VH: EVQLQQSGAELVKPGASVKLSCTASGFNIKDTYMHWVKQRPEQGLEWIGRIDPANGNTKYDPKFQGKATITTDTSSNTAYLQLSSLTSEDTAVYYCATSYYGNYVAYWGHGTLVTVSA
VL: DIQMDQSPSSLSASLGDTITITCHASQNINVWLSWYQQKPGNIPKLLIYKASNLHTGVPSRFSGSGSGTGFTLTISSLQPEDIATYYCQQGQSYPLTFGSGRKLEIK
notes: Mouse hybridoma mAb; captured by anti-mouse IgG
[9]
  binding result: no binding (tested: 0 to 200 nM antigen)
[10]
  Kd: 5.2 nM
  koff: 0.0079 s⁻¹
  kon: 1.5e+06 M⁻¹ s⁻¹
Chagas FRA antigen [11]
  Kd: 37 nM
  koff: 0.13 s⁻¹
  kon: 3.6e+06 M⁻¹ s⁻¹
[5]
  binding result: no binding (tested: 0 to 200 nM antigen)

B6: recombinant chimeric (mouse-human) anti-Chagas monoclonal antibody 10-745-140 (FP10) (antibody, V domains shown)
VH: QVQLQQPGAELVKPGASVKMSCKASGYTFTSYWVHWVKQRPGQGLEWIGVIDPSDSYTSYNQKFKGKATLTVDTSSSTAYMQLSSLTSEDSAVYYCTRHYDFDSWYFDVWGAGTTVTVSS
VL: DVVMTQTPLSLPVSLGDQASISCRSSQSLVHSNGNTYLHWYLQKPGQSPKLLIYKVSNRFSGVPDRFSGSGSGTDFTLKISRVEAEDLGVYFCSQSTHVPPTFGGGTKLEIK
notes: Mouse VH and VL of hybridoma HBFP10 joined to human IgG1 (z, non-a) and human kappa constant regions; the summary and the claims swap them; also called Chimeric Chagas Ab 10-745-140; Chagas FP10 10-745-3796
[12]
  Kd: 2.9 nM
  koff: 0.00036 s⁻¹
  kon: 120000 M⁻¹ s⁻¹
[7]
  binding result: no binding (tested: 0 to 300 nM antibody)

B7: murine anti-Chagas monoclonal antibody 10-745-140 (FP10) (antibody, V domains shown)
VH: B6 VH
VL: B6 VL
notes: Mouse hybridoma mAb; captured by anti-mouse IgG; also called Murine Chagas Ab 10-745-140; Chagas 10-745-140
[13]
  Kd: 1.9 nM
  koff: 0.00022 s⁻¹
  kon: 110000 M⁻¹ s⁻¹
